Reference: PMC8151509
Numbering of substitutions follows the chain as printed. Numbers in names are those of the source. Each block holds one binder with its values, some of them ahead of it.

Experiments:
[1] = biological target: C1qCLR_nc2 (wild type, devoid of the additional GPP triplets), P02745;P02747; assay: SPR; details: chain shown with the change; immobilized C1qCLR_nc2; parent: est. 100; read off a plot
[2] = biological target: C1qstem_nc2, P02745;P02746; assay: SPR; details: chain shown with the change; immobilized C1qstem_nc2; parent: est. 100; read off a plot
Sequence of C1qstem_nc2, P02745;P02746 (chain, as listed by the source, chain 1 of 3): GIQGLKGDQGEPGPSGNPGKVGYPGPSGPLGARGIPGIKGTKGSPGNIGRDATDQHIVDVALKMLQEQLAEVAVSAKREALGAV
Sequence of C1qstem_nc2, P02745;P02746 (chain, as listed by the source, chain 2 of 3): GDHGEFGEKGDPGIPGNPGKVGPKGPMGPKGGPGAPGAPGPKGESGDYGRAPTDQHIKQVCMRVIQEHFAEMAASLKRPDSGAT
Sequence of C1qstem_nc2, P02745;P02746 (chain, as listed by the source, chain 3 of 3): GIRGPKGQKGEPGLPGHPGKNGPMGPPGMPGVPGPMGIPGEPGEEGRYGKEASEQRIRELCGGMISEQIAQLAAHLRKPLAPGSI

[3] = biological target: C1qCLR_nc2 (wild type, devoid of the additional GPP triplets) (UniProt P02745); assay: SPR; LAIR-1 Ig-like domain injected at increasing concentrations (4-128, 4-256 or 3.125-400 µM) over immobilized C1q, rC1q variants, C1qCLR_nc2 variants or C1qstem_nc2 (CM5, amine coupling); 25 °C; 50 mM Tris, 150 mM NaCl, 2 mM CaCl2, 0.05% surfactant P20, pH 7.5; KD from Req versus concentration, steady-state model
C1qCLR_nc2 A_R72E = C1qCLR_nc2 A_R72E (UniProt P02745); assay: as above
C1qCLR_nc2 B_K65E = C1qCLR_nc2 B_K65E (UniProt P02745); assay: as above
C1qstem_nc2 = C1qstem_nc2 (UniProt P02745); assay: as above

Sequence of C1qCLR_nc2 (wild type, devoid of the additional GPP triplets), P02745;P02747 (chain, as listed by the source, chain 1 of 3): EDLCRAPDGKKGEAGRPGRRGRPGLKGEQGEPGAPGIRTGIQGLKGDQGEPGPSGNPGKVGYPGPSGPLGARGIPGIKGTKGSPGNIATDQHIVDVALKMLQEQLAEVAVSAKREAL
Sequence of C1qCLR_nc2 (wild type, devoid of the additional GPP triplets), P02745;P02747 (chain, as listed by the source, chain 2 of 3): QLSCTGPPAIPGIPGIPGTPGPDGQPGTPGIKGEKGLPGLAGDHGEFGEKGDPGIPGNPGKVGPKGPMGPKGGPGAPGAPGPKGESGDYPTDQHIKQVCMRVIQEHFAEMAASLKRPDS
Sequence of C1qCLR_nc2 (wild type, devoid of the additional GPP triplets), P02745;P02747 (chain, as listed by the source, chain 3 of 3): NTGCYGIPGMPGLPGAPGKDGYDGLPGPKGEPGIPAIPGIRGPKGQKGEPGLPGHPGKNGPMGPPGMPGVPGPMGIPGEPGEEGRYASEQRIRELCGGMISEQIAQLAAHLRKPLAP

B4: LAIR-1 Ig-like domain, wild type, Q6GTX8 E72K (protein)
chain: QEEDLPRPSISAEPGTVIPLGSHVTFVCRGPVGVQTFRLERDSRSTYNDTKDVSQASPSESEARFRIDSVREGNAGLYRCIYYKPPKWSEQSDYLELLVKE
percent of parent (% of LAIR-1 WT binding) [1]: 21
percent of parent (% of LAIR-1 WT binding) [2]: 21

B5: LAIR-1 Ig-like domain, wild type (domain or fragment)
chain: B4 chain with K51E
Kd [3]: 179 µM
Kd (C1qCLR_nc2 A_R72E): 295 µM
Kd (C1qCLR_nc2 B_K65E): 189 µM
Kd (C1qstem_nc2): 175 µM

B6: LAIR-1 Ig-like domain, wild type, Q6GTX8 E61A (protein)
chain: B4 chain with E40A, K51E
percent of parent (% of LAIR-1 WT binding) [1]: 11
percent of parent (% of LAIR-1 WT binding) [2]: 6

Next, values leading:

percent of parent (% of LAIR-1 WT binding) [1]: 60
percent of parent (% of LAIR-1 WT binding) [2]: 69
B1: LAIR-1 Ig-like domain, wild type, Q6GTX8 P107R (protein)
chain: B4 chain with K51E, P86R

percent of parent (% of LAIR-1 WT binding) [1]: 36
percent of parent (% of LAIR-1 WT binding) [2]: 34
B2: LAIR-1 Ig-like domain, wild type, Q6GTX8 E111K (protein)
chain: B4 chain with K51E, E90K

percent of parent (% of LAIR-1 WT binding) [1]: 21
percent of parent (% of LAIR-1 WT binding) [2]: 20
B3: LAIR-1 Ig-like domain, wild type, Q6GTX8 I102L (protein)
chain: B4 chain with K51E, I81L
